# Assay results published in patent publication US20220204580A1 (AstraZeneca / MedImmune, published 2022).
# Numbered stars: 1 amine (or outer) side, 2 acyl side, 3 side chain; on linkers, the order of the positions; unused ones are H or OH. Bridge positions count the residues as written; N and C are the ends. Square brackets hold non-standard residues; d marks the D form. Side chains are listed from the residue outwards. Ends that are not written are not given here. * marks the point of attachment. C20 diacid = O=C(O)CCCCCCCCCCCCCCCCCCC(=O)*; C18 diacid = O=C(O)CCCCCCCCCCCCCCCCC(=O)*; γGlu = O=C(O)[C@H](CCC(=O)[*:2])N[*:1]; Dab = NCC[C@H](N)C(=O)O; Aib = CC(C)(N)C(=O)O
# B1: Peptide 123 (SEQ ID NO: 123) (peptide)
# peptide: K([γGlu-γGlu-C20 diacid])CNTATCATQRLANFLVHSS[Aib]NFPAILSPT[Dab]VGSNTY-NH2
# modifications: disulfide 2-7; N-terminus assumed
# SMILES: CC[C@H](C)[C@H](NC(=O)[C@H](C)NC(=O)[C@@H]1CCCN1C(=O)[C@H](Cc1ccccc1)NC(=O)[C@H](CC(N)=O)NC(=O)C(C)(C)NC(=O)[C@H](CO)NC(=O)[C@H](CO)NC(=O)[C@H](Cc1c[nH]cn1)NC(=O)[C@@H](NC(=O)[C@H](CC(C)C)NC(=O)[C@H](Cc1ccccc1)NC(=O)[C@H](CC(N)=O)NC(=O)[C@H](C)NC(=O)[C@H](CC(C)C)NC(=O)[C@H](CCCNC(=N)N)NC(=O)[C@H](CCC(N)=O)NC(=O)[C@@H](NC(=O)[C@H](C)NC(=O)[C@@H]1CSSC[C@H](NC(=O)[C@@H](N)CCCCNC(=O)CC[C@H](NC(=O)CC[C@H](NC(=O)CCCCCCCCCCCCCCCCCCC(=O)O)C(=O)O)C(=O)O)C(=O)N[C@@H](CC(N)=O)C(=O)N[C@@H]([C@@H](C)O)C(=O)N[C@@H](C)C(=O)N[C@@H]([C@@H](C)O)C(=O)N1)[C@@H](C)O)C(C)C)C(=O)N[C@@H](CC(C)C)C(=O)N[C@@H](CO)C(=O)N1CCC[C@H]1C(=O)N[C@H](C(=O)N[C@@H](CCN)C(=O)N[C@H](C(=O)NCC(=O)N[C@@H](CO)C(=O)N[C@@H](CC(N)=O)C(=O)N[C@H](C(=O)N[C@@H](Cc1ccc(O)cc1)C(N)=O)[C@@H](C)O)C(C)C)[C@@H](C)O
# B2: Peptide 124 (SEQ ID NO: 124) (peptide)
# peptide: K([γGlu-γGlu-C18 diacid])CNTATCATQRLANFLVHSS[Aib]NFPAILSPTNVGS[Dab]TY-NH2
# modifications: disulfide 2-7; N-terminus assumed
# SMILES: CC[C@H](C)[C@H](NC(=O)[C@H](C)NC(=O)[C@@H]1CCCN1C(=O)[C@H](Cc1ccccc1)NC(=O)[C@H](CC(N)=O)NC(=O)C(C)(C)NC(=O)[C@H](CO)NC(=O)[C@H](CO)NC(=O)[C@H](Cc1c[nH]cn1)NC(=O)[C@@H](NC(=O)[C@H](CC(C)C)NC(=O)[C@H](Cc1ccccc1)NC(=O)[C@H](CC(N)=O)NC(=O)[C@H](C)NC(=O)[C@H](CC(C)C)NC(=O)[C@H](CCCNC(=N)N)NC(=O)[C@H](CCC(N)=O)NC(=O)[C@@H](NC(=O)[C@H](C)NC(=O)[C@@H]1CSSC[C@H](NC(=O)[C@@H](N)CCCCNC(=O)CC[C@H](NC(=O)CC[C@H](NC(=O)CCCCCCCCCCCCCCCCC(=O)O)C(=O)O)C(=O)O)C(=O)N[C@@H](CC(N)=O)C(=O)N[C@@H]([C@@H](C)O)C(=O)N[C@@H](C)C(=O)N[C@@H]([C@@H](C)O)C(=O)N1)[C@@H](C)O)C(C)C)C(=O)N[C@@H](CC(C)C)C(=O)N[C@@H](CO)C(=O)N1CCC[C@H]1C(=O)N[C@H](C(=O)N[C@@H](CC(N)=O)C(=O)N[C@H](C(=O)NCC(=O)N[C@@H](CO)C(=O)N[C@@H](CCN)C(=O)N[C@H](C(=O)N[C@@H](Cc1ccc(O)cc1)C(N)=O)[C@@H](C)O)C(C)C)[C@@H](C)O
# B3: Peptide 126 (SEQ ID NO: 126) (peptide)
# peptide: K([γGlu-C18 diacid])KCNTATCATQRLANFL[Aib]HSS[Dab]NFGPILPPTNVGSNTY-NH2
# modifications: disulfide 3-8; N-terminus assumed
# SMILES: CC[C@H](C)[C@H](NC(=O)[C@@H]1CCCN1C(=O)CNC(=O)[C@H](Cc1ccccc1)NC(=O)[C@H](CC(N)=O)NC(=O)[C@H](CCN)NC(=O)[C@H](CO)NC(=O)[C@H](CO)NC(=O)[C@H](Cc1c[nH]cn1)NC(=O)C(C)(C)NC(=O)[C@H](CC(C)C)NC(=O)[C@H](Cc1ccccc1)NC(=O)[C@H](CC(N)=O)NC(=O)[C@H](C)NC(=O)[C@H](CC(C)C)NC(=O)[C@H](CCCNC(=N)N)NC(=O)[C@H](CCC(N)=O)NC(=O)[C@@H](NC(=O)[C@H](C)NC(=O)[C@@H]1CSSC[C@H](NC(=O)[C@H](CCCCN)NC(=O)[C@@H](N)CCCCNC(=O)CC[C@H](NC(=O)CCCCCCCCCCCCCCCCC(=O)O)C(=O)O)C(=O)N[C@@H](CC(N)=O)C(=O)N[C@@H]([C@@H](C)O)C(=O)N[C@@H](C)C(=O)N[C@@H]([C@@H](C)O)C(=O)N1)[C@@H](C)O)C(=O)N[C@@H](CC(C)C)C(=O)N1CCC[C@H]1C(=O)N1CCC[C@H]1C(=O)N[C@H](C(=O)N[C@@H](CC(N)=O)C(=O)N[C@H](C(=O)NCC(=O)N[C@@H](CO)C(=O)N[C@@H](CC(N)=O)C(=O)N[C@H](C(=O)N[C@@H](Cc1ccc(O)cc1)C(N)=O)[C@@H](C)O)C(C)C)[C@@H](C)O
# B4: Peptide 125 (SEQ ID NO: 125) (peptide)
# peptide: K([γGlu-γGlu-C20 diacid])CNTATCATQRLANFLVHSS[Aib]NFPAILSPTNVGS[Dab]TY-NH2
# modifications: disulfide 2-7; N-terminus assumed
# SMILES: CC[C@H](C)[C@H](NC(=O)[C@H](C)NC(=O)[C@@H]1CCCN1C(=O)[C@H](Cc1ccccc1)NC(=O)[C@H](CC(N)=O)NC(=O)C(C)(C)NC(=O)[C@H](CO)NC(=O)[C@H](CO)NC(=O)[C@H](Cc1c[nH]cn1)NC(=O)[C@@H](NC(=O)[C@H](CC(C)C)NC(=O)[C@H](Cc1ccccc1)NC(=O)[C@H](CC(N)=O)NC(=O)[C@H](C)NC(=O)[C@H](CC(C)C)NC(=O)[C@H](CCCNC(=N)N)NC(=O)[C@H](CCC(N)=O)NC(=O)[C@@H](NC(=O)[C@H](C)NC(=O)[C@@H]1CSSC[C@H](NC(=O)[C@@H](N)CCCCNC(=O)CC[C@H](NC(=O)CC[C@H](NC(=O)CCCCCCCCCCCCCCCCCCC(=O)O)C(=O)O)C(=O)O)C(=O)N[C@@H](CC(N)=O)C(=O)N[C@@H]([C@@H](C)O)C(=O)N[C@@H](C)C(=O)N[C@@H]([C@@H](C)O)C(=O)N1)[C@@H](C)O)C(C)C)C(=O)N[C@@H](CC(C)C)C(=O)N[C@@H](CO)C(=O)N1CCC[C@H]1C(=O)N[C@H](C(=O)N[C@@H](CC(N)=O)C(=O)N[C@H](C(=O)NCC(=O)N[C@@H](CO)C(=O)N[C@@H](CCN)C(=O)N[C@H](C(=O)N[C@@H](Cc1ccc(O)cc1)C(N)=O)[C@@H](C)O)C(C)C)[C@@H](C)O
# Key:
# [1] = molecular target: T1, human amylin receptor (calcitonin receptor co-expressed with receptor activity modifying protein, RAMP3) (human, UniProt P30988 25-474; O60896 24-148); assay: cell-based or functional assay
# T1 sequence (looked up) 1: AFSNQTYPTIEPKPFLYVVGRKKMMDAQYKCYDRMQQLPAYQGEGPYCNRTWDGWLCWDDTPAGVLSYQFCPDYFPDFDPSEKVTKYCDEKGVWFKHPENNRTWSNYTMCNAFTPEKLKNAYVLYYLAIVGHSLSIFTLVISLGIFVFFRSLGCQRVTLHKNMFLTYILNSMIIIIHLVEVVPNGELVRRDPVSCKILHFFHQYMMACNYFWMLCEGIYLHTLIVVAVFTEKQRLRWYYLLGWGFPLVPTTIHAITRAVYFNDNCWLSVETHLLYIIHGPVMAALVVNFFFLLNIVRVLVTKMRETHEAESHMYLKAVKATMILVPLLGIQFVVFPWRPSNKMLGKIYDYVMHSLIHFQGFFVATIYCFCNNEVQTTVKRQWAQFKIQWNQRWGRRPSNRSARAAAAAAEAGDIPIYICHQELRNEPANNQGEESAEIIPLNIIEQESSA
# T1 sequence (looked up) 2: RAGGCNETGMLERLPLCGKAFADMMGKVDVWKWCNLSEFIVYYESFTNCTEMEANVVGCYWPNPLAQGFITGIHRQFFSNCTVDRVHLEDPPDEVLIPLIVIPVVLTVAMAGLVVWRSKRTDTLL
# [2] = molecular target: T2, human calcitonin receptor (human, UniProt P30988 25-474); assay: cell-based or functional assay
# T2 sequence (looked up): T1 sequence (looked up) 1
binder,measurement,setting,value
B1,EC50 (cAMP production),[1],0.873 nM
same,Ratio (EC50 hCTR / EC50 hAMYR3),[1],5
same,EC50 (cAMP production),[2],4.79 nM
B2,EC50 (cAMP production),[1],1.13 nM
same,Ratio (EC50 hCTR / EC50 hAMYR3),[1],6
same,EC50 (cAMP production),[2],6.63 nM
B3,EC50 (cAMP production),[1],0.445 nM
same,Ratio (EC50 hCTR / EC50 hAMYR3),[1],19
same,EC50 (cAMP production),[2],8.45 nM
B4,EC50 (cAMP production),[1],1.2 nM
same,Ratio (EC50 hCTR / EC50 hAMYR3),[1],8
same,EC50 (cAMP production),[2],10.2 nM
